According to patent publication US20250188133A1, “CHIMERIC BACTERIOCINS AND METHOD FOR THE CONTROL OF PSEUDOMONAS” (priority 2022, published 2025):

What was measured:
Type in all cases: cell-based
P. aeruginosa NCTC 13921 = assay: agar disc-diffusion assay; settings: strain NCTC 13921; 0.3, 3 and 30 μg of protein spotted on discs on CAA agar lawn, overnight
Protocol: (§1) Overnight P. aeruginosa cultures grown in CAA medium were equalized till OD595=1.0 in CAA and diluted 100×. Sterile cotton swab was briefly submerged in diluted microbial suspension, removing the excess of liquid by pressing it against the container wall. The swab was used for evenly streaking bacteria on plates containing growth medium with CAA solid agar (1.5%). 6 mm diameter sterile Whatman discs were placed on soft-agar and 0.3-30 μg of chimeric pyocins were spotted to paper disks. The plates were incubated overnight at 37° C. and bacteriocin inhibition zones were observed.
(§2) Next, all 25 P. aeruginosa strains were subjected to agar disc-diffusion assay by spotting different amounts of purified pyocin S5 (0.3 μg, 3 μg and 30 μg) on bacteria lawns. Six P. aeruginosa strains were resistant to pyocin S5. Four of these six strains were pyocin S5 and immunity protein-encoding strains—PA14, PAO1, […] and NCTC 13921. Two cystic fibrosis isolates, 12-35708 and 12-29165 were also completely resistant to pyocin S5, despite the absence of S5, or S5 immunity protein coding genes. […] Turbid inhibition zones were detected when 3 μg and 30 μg of S5 were spotted on the lawn of these strains (Table 1, FIG. 3).

P. aeruginosa UR78 = assay: agar disc-diffusion assay; settings: strain UR78; 0.3, 3 and 30 μg of protein spotted on discs on CAA agar lawn, overnight
Protocol: as §1, §2

P. aeruginosa Pr335 = assay: agar disc-diffusion assay; settings: strain Pr335; 0.3, 3 and 30 μg of protein spotted on discs on CAA agar lawn, overnight
Protocol: as §1, §2

P. aeruginosa HP1 = assay: agar disc-diffusion assay; settings: strain HP1; 0.3, 3 and 30 μg of protein spotted on discs on CAA agar lawn, overnight
Protocol: as §1, §2

P. aeruginosa ATCC 29260 = assay: agar disc-diffusion assay; settings: strain ATCC 29260; 0.3, 3 and 30 μg of protein spotted on discs on CAA agar lawn, overnight
Protocol: as §1, §2

P. aeruginosa BR79 = assay: agar disc-diffusion assay; settings: strain BR79; 0.3, 3 and 30 μg of protein spotted on discs on CAA agar lawn, overnight
Protocol: as §1, §2

P. aeruginosa 13-18499 = assay: agar disc-diffusion assay; settings: strain 13-18499; 0.3, 3 and 30 μg of protein spotted on discs on CAA agar lawn, overnight
Protocol: as §1, §2

[1] = test system: P. aeruginosa Boston 41501 (ATCC 27853); assay: agar disc-diffusion assay; settings: strain Boston; 0.3, 3 and 30 μg of protein spotted on discs on CAA agar lawn, overnight
Protocol: as §1, §2

P. aeruginosa HP7 = assay: agar disc-diffusion assay; settings: strain HP7; 0.3, 3 and 30 μg of protein spotted on discs on CAA agar lawn, overnight
Protocol: as §1, §2

P. aeruginosa A19 = assay: agar disc-diffusion assay; settings: strain A19; 0.3, 3 and 30 μg of protein spotted on discs on CAA agar lawn, overnight
Protocol: as §1, §2

P. aeruginosa NCTC 13437 = assay: agar disc-diffusion assay; settings: strain NCTC 13437; 0.3, 3 and 30 μg of protein spotted on discs on CAA agar lawn, overnight
Protocol: as §1, §2

P. aeruginosa BI80 = assay: agar disc-diffusion assay; settings: strain BI80; 0.3, 3 and 30 μg of protein spotted on discs on CAA agar lawn, overnight
Protocol: as §1, §2

P. aeruginosa PA14 = assay: agar disc-diffusion assay; settings: strain PA14; 0.3, 3 and 30 μg of protein spotted on discs on CAA agar lawn, overnight
Protocol: as §1, §2

P. aeruginosa HP41 = assay: agar disc-diffusion assay; settings: strain HP41; 0.3, 3 and 30 μg of protein spotted on discs on CAA agar lawn, overnight
Protocol: as §1, §2

P. aeruginosa HP52 = assay: agar disc-diffusion assay; settings: strain HP52; 0.3, 3 and 30 μg of protein spotted on discs on CAA agar lawn, overnight
Protocol: as §1, §2

P. aeruginosa Bu002 = assay: agar disc-diffusion assay; settings: strain Bu002; 0.3, 3 and 30 μg of protein spotted on discs on CAA agar lawn, overnight
Protocol: as §1, §2

P. aeruginosa EY76 = assay: agar disc-diffusion assay; settings: strain EY76; 0.3, 3 and 30 μg of protein spotted on discs on CAA agar lawn, overnight
Protocol: as §1, §2

P. aeruginosa HP6 = assay: agar disc-diffusion assay; settings: strain HP6; 0.3, 3 and 30 μg of protein spotted on discs on CAA agar lawn, overnight
Protocol: as §1, §2

P. aeruginosa BL77 = assay: agar disc-diffusion assay; settings: strain BL77; 0.3, 3 and 30 μg of protein spotted on discs on CAA agar lawn, overnight
Protocol: as §1, §2

P. aeruginosa HP40 = assay: agar disc-diffusion assay; settings: strain HP40; 0.3, 3 and 30 μg of protein spotted on discs on CAA agar lawn, overnight
Protocol: as §1, §2

P. aeruginosa HP75 = assay: agar disc-diffusion assay; settings: strain HP75; 0.3, 3 and 30 μg of protein spotted on discs on CAA agar lawn, overnight
Protocol: as §1, §2

P. aeruginosa PAO1 = assay: agar disc-diffusion assay; settings: strain PAO1; 0.3, 3 and 30 μg of protein spotted on discs on CAA agar lawn, overnight
Protocol: as §1, §2

P. aeruginosa strains = assay: agar disc-diffusion assay, panel of 25 strains; settings: panel of 25 P. aeruginosa strains, in words
Protocol: as §1, §2

B1: S5-Pflu373: chimeric bacteriocin SEQ ID NO: 13: pyocin S5 first segment fused to P. fluorescens Pflu373 killing domain (protein)
chain: MSNDNEVPGSMVIVAQGPDDQYAYEVPPIDSAAVAGNMFGDLIQREIYLQKNIYYPVRSIFEQGTKEKKEINKKVSDQVDGLLKQITQGKREATRQERVDVMSAVLHKMESDLEGYKKTFTKGPFIDYEKQSSLSIYEAWVKIWEKNSWEERKKYPFQQLVRDELERAVAYYKQDSLSEAVKVLRQELNKQKALKEKEDLSQLERDYRTRKANLEMKVQSELDQAGSALPPLVSPTPEQWLERATRLVTQAIADKKQLQTTNNTLIKNSPTPLEKQKAIYNGELLVDEIASLQARLVKLNAETTRRRTEAEEQAKAEEEIKGAIKFTADFYKEIGEKYGAQMTASATDLAETAKGKTLRSAEEALKAFDQYKDHLDKKFSAADRAAIVNALDSLDRAELAKNLNLFAKGFGYTSKAFDVYDLVEEVKKSYASGDWNNTALKVETLFAGSAATGLIAFAFGVTVSTPVGIVAFALIMALVSAYIDDAHVKQFNDALDAILP
modifications: S5-Pflu373
- Activity in agar disc-diffusion assay (P. aeruginosa NCTC 13921): ** (activity detected with 3 μg of protein)
- Activity in agar disc-diffusion assay (P. aeruginosa UR78): *** (activity detected with 0.3 μg of protein)
- Activity in agar disc-diffusion assay (P. aeruginosa Pr335): *** (activity detected with 0.3 μg of protein)
- Activity in agar disc-diffusion assay (P. aeruginosa HP1): *** (activity detected with 0.3 μg of protein)
- Activity in agar disc-diffusion assay (P. aeruginosa ATCC 29260): *** (activity detected with 0.3 μg of protein)
- Activity in agar disc-diffusion assay (P. aeruginosa BR79): ** (activity detected with 3 μg of protein)
- Activity in agar disc-diffusion assay (P. aeruginosa 13-18499): ** (activity detected with 3 μg of protein)
- Activity in agar disc-diffusion assay [1]: *** (activity detected with 0.3 μg of protein)
- Activity in agar disc-diffusion assay (P. aeruginosa HP7): *** (activity detected with 0.3 μg of protein)
- Activity in agar disc-diffusion assay (P. aeruginosa A19): *** (activity detected with 0.3 μg of protein)
- Activity in agar disc-diffusion assay (P. aeruginosa NCTC 13437): * (activity detected only with 30 μg of protein)
- Activity in agar disc-diffusion assay (P. aeruginosa BI80): *** (activity detected with 0.3 μg of protein)
- Activity in agar disc-diffusion assay (P. aeruginosa PA14): ** (activity detected with 3 μg of protein)
- Activity in agar disc-diffusion assay (P. aeruginosa HP41): *** (activity detected with 0.3 μg of protein)
- Activity in agar disc-diffusion assay (P. aeruginosa HP52): ** (activity detected with 3 μg of protein)
- Activity in agar disc-diffusion assay (P. aeruginosa Bu002): *** (activity detected with 0.3 μg of protein)
- Activity in agar disc-diffusion assay (P. aeruginosa EY76): *** (activity detected with 0.3 μg of protein)
- Activity in agar disc-diffusion assay (P. aeruginosa HP6): *** (activity detected with 0.3 μg of protein)
- Activity in agar disc-diffusion assay (P. aeruginosa BL77): ** (activity detected with 3 μg of protein)
- Activity in agar disc-diffusion assay (P. aeruginosa HP40): *** (activity detected with 0.3 μg of protein)
- Activity in agar disc-diffusion assay (P. aeruginosa HP75): ** (activity detected with 3 μg of protein)
- Activity in agar disc-diffusion assay (P. aeruginosa PAO1): *** (activity detected with 0.3 μg of protein)
- activity spectrum / profile in agar disc diffusion assay (P. aeruginosa strains): good activity profile, similar to S5-Pflu095
